This is an account of results in patent US20220135686A1 (SUNSHINE GUOJIAN PHARMACEUTICAL SHANGHAI, published 2022).

A word on the EC50: it is the concentration needed to bring the measured effect to its halfway point. The term IC50 denotes the concentration that gives 50% inhibition. Higher therefore signals lower potency. As usually defined, the Kd is a measure of binding affinity in units of concentration. Read a low Kd as higher affinity. What is called koff is a measure of how fast the partners let go of each other. High values mean a short-lived complex, low ones a long-lived complex. One may read the kon as a measure of how fast the partners come together. A higher kon goes with faster complex formation.

“And” between values parts separate entries of the source, which are not always exact repeats. Equal values may be shown once.

Assay [1] concerns the target T1, PD1-His (human, UniProt Q15116 25-170).
T1 construct: extracellular domain; Expressed in HEK293F; also called recombinant protein PD1-His; not shown: polyhistidine tag
Description: ELISA, plate coated with PD1-His 10 ng/well, OD450.

Assay [2] addresses T2, PD-L1-ECD-hFc (human, UniProt Q9NZQ7 19-238).
T2 construct: extracellular domain; also called biotinylated PD-L1-ECD-hFc; not shown: Fc segment of human IgG1
Briefly: ELISA, coated PD-L1-ECD-hFc. As for the experimental part:
(§1) The plates were blocked with PBST containing 1% BSA. The antibodies to be tested were serially diluted, then transferred to the above plates coated with recombinant proteins, incubated at room temperature for half an hour and then the plates were washed; an appropriately diluted HRP-labeled goat anti-human antibody (Fc-Specific) (purchased from Sisgma) was added, incubated at room temperature for half an hour and then the plates were washed; chromogenic solution with TMB as a substrate was added at 100 μl/well, incubated at room temperature for 1˜5 min; 50 μl of stop solution (2M H₂SO₄) was added to stop the reaction. OD450 values were read with a microplate reader (SpectraMax 190). Graphing and data analysis were performed using GraphPad Prism6, and EC50 values were calculated.

Assay [3] deals with T2, PD-L1-ECD-hFc. Description: competition ELISA: blocks biotinylated PD-L1-ECD-hFc binding to coated PD1-ECD-hFc. As for the experimental part:
Human PD-1-ECD-hFc was diluted to 2 μg/ml with sodium carbonate buffer (1.59 g Na₂CO₃ and 2.93 g NaHCO₃ dissolved in 1 L of pure water), and added into a 96-well ELISA plate with a multichannel pipette at 100 μl/well, incubated at room temperature for 4 h; washed once with PBST, blocked with PBST containing 1% BSA at 200 μl/well, incubated at room temperature for 2 h; the blocking solution was discarded, the plate was patted dry, and placed at 4° C. for later use. […] OD450 values were read with a microplate reader (SpectraMax 190). Graphing and data analysis were performed using GraphPad Prism6, and IC50 values were calculated.
For orientation: In an ELISA, binding on a coated surface is turned into a signal by an enzyme label.

For assay [4], the target named is T3, PD1-ECD-hFc (human, UniProt Q15116 25-170).
T3 construct: extracellular domain; also called Human PD-1-ECD-hFc; human PD1-ECD-hFc; not shown: Fc segment of human IgG1
Description: ELISA, plate coated with PD1-ECD-hFc 10 ng/well, OD450. As for the experimental part: as §1

Assay [5] has as its target T4, PD-L1-His (human, UniProt Q9NZQ7 19-238).
T4 construct: extracellular domain; Expressed in HEK293F; also called recombinant protein PD-L1-His; not shown: polyhistidine tag
Description: SPR (Biacore 8K), antibody captured on Protein A/G chip, PD-L1-His injected. As for the experimental part: (§2) Herein, the affinity of the above antibodies to PD-1 or PD-L1 was determined by Biacore 8K (GE healthcare). On Biacore 8K, the chip coupled with Protein A/G was used to capture various antibodies, respectively, and then the recombinant protein PD1-His or PD-L1-His was injected to obtain the binding-dissociation curve, which was eluted with 6M guanidine hydrochloride regeneration buffer for next cycle. Data were analyzed using the Biacore 8K Evaluation Software.
For orientation: SPR reads the build-up and loss of mass on a sensor chip optically.

The target in assay [6] is T4, PD-L1-His. Briefly: ELISA, coated PD-L1-His.
The target of assay [7] is T1, PD1-His. Description: SPR (Biacore 8K), antibody captured on Protein A/G chip, PD1-His injected. As for the experimental part: as §2
Assay [8] addresses T1, PD1-His. Briefly: ELISA, coated PD1-His.
Assay [9] concerns the target T3, PD1-ECD-hFc. Description: ELISA, coated PD1-ECD-hFc. As for the experimental part:
as §1

Assay [10] concerns the target T2, PD-L1-ECD-hFc. Description: ELISA, plate coated with PD-L1-ECD-hFc 10 ng/well, OD450. As for the experimental part:
as §1

T3 sequence (Q15116 25-170 limits assumed): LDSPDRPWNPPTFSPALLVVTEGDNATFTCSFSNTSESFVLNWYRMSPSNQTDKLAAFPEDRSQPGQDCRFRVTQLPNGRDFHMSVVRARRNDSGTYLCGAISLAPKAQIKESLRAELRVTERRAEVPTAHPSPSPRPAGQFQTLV
T1 sequence (Q15116 25-170): as the sequence (Q15116 25-170 limits assumed) above
T2 sequence (Q9NZQ7 19-238 limits assumed): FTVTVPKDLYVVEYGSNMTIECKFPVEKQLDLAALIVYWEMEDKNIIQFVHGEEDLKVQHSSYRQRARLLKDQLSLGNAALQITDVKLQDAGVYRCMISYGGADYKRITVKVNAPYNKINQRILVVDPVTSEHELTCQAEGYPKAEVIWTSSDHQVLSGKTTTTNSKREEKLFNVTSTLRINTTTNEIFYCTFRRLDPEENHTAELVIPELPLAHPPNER
T4 sequence (Q9NZQ7 19-238): as the sequence (Q9NZQ7 19-238 limits assumed) above

B1: Anti-PDL1 (antibody, human IgG1, kappa, V domains shown)
VH: QVQLQQSGGGLVKPSQSLSLTCTVSGFSLTSYGVHWVRQPPGKGLEWIGLIWSGGGTDYNPSLKSRLTISRDTSKNQVSFKISSLTAADTAVYYCARQLGLRAMDYWGQGTSVTVSS
VL: EIVLTQSPDFLSVTPKEKVTITCRASQSIGTTIHWYQQKPDQSPKLLIKYASQSFSGVPSRFSGSGSGTDFTLTINSVEAEDAATYYCQQSNSWPLTFGAGTKLEIKR
notes: Humanized from murine M8; human IgG1 / kappa; also called humanized anti-human PD-L1 antibody; Anti-PDL1-HC+Anti-PDL1-LC
For B1, in the assay with PD1-His [1], the binding result was “no binding (tested: log10(nM) about 2.4 (about 250 nM))”. Besides, in the assay with PD-L1-ECD-hFc [2], a half-maximal response (EC50) required 0.125 nM. The molecule further showed an IC50 with PD-L1-ECD-hFc [3] of 1.37 nM. The binding result with PD1-ECD-hFc [4] is on record as “no binding (tested: log10(nM) about 2.1 (about 130 nM))”. In the assay with PD-L1-His [5], this molecule yielded a Kd of 0.843 nM, a koff of 0.00138 s⁻¹ and a kon of 1.63e+06 M⁻¹ s⁻¹. In addition, in the assay with PD-L1-His [6], the half-maximal effective concentration (EC50) was 0.12 nM and 0.102 nM.

B2: 609-HC+Anti-PDL1-LC (antibody, human IgG4 S228P, kappa, V domains shown)
VH: EVKLVESGGGLVQPGGSLRLSCAASGFAFSSYDMSWVRQAPGKRLEWVATISGGGRYTYYPDTVKGRFTISRDNAKNSHYLQMNSLRAEDTAVYFCASPYGGYFDVWGQGTLVTVSS
VL: EIVLTQSPDFLSVTPKEKVTITCRASQSIGTTIHWYQQKPDQSPKLLIKYASQSFSGVPSRFSGSGSGTDFTLTINSVEAEDAATYYCQQSNSWPLTFGAGTKLEIKR
notes: also called hybrid antibody
With B2, in the assay with PD1-His [7], binding was put at a Kd of 34.9 nM, the dissociation rate constant (koff) is 0.00439 s⁻¹ and the association rate constant (kon) amounted to 126000 M⁻¹ s⁻¹. Also, in the assay with PD1-His [8], a half-maximal response (EC50) required 0.382 nM. In addition, in the assay with PD1-ECD-hFc [9], the midpoint of the response, the EC50, lay at 0.243 nM.

B3: Anti-PDL1-HC+609-LC (antibody, human IgG1, kappa, V domains shown)
VH: QVQLQQSGGGLVKPSQSLSLTCTVSGFSLTSYGVHWVRQPPGKGLEWIGLIWSGGGTDYNPSLKSRLTISRDTSKNQVSFKISSLTAADTAVYYCARQLGLRAMDYWGQGTSVTVSS
VL: EIVLTQSPATLSLSPGERATLSCRASQSISNFLHWYQQKPGQAPRLLIKYASQSISGIPARFSGSGSGTDFTLTISSLEPEDFAVYFCQQSNSWPHTFGQGTKVEIKR
notes: also called hybrid antibody
Take B3: in the assay with PD1-ECD-hFc [4], the binding result was “no binding (tested: log10(nM) about 2.1 (about 130 nM))”.

B4: mAb1-25-Hu (609) (antibody, human IgG4 S228P, kappa, V domains shown)
VH: EVKLVESGGGLVQPGGSLRLSCAASGFAFSSYDMSWVRQAPGKRLEWVATISGGGRYTYYPDTVKGRFTISRDNAKNSHYLQMNSLRAEDTAVYFCASPYGGYFDVWGQGTLVTVSS
VL: EIVLTQSPATLSLSPGERATLSCRASQSISNFLHWYQQKPGQAPRLLIKYASQSISGIPARFSGSGSGTDFTLTISSLEPEDFAVYFCQQSNSWPHTFGQGTKVEIKR
notes: Humanized anti-human PD-1 monoclonal antibody, human IgG4 (S228P) / kappa
As for B4, the binding result with PD-L1-ECD-hFc [10] was “no binding (tested: log10(nM) about 2.1 (about 130 nM))”.

B5: PDL1-Fab-609-IgG4 (bispecific antibody)
heavy: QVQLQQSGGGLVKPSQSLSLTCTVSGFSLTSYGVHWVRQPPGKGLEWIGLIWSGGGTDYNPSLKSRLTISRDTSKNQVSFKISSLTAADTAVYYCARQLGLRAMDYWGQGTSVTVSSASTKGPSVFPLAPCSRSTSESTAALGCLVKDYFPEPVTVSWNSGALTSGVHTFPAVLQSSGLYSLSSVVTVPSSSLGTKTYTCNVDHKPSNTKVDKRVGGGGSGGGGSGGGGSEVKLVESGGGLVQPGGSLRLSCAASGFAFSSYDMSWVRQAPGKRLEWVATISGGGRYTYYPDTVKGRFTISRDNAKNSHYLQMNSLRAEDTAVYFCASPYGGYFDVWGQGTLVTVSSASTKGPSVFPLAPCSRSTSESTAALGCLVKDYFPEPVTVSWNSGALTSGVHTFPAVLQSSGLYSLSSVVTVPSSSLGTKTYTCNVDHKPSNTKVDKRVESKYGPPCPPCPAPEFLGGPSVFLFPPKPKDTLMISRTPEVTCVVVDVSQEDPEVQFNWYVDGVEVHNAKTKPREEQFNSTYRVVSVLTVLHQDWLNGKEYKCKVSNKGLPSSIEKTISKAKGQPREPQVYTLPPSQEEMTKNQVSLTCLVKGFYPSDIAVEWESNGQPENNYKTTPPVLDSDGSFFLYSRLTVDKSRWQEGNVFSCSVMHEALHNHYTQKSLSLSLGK
light: EIVLTQSPDFLSVTPKEKVTITCRASQSIGTTIHWYQQKPDQSPKLLIKYASQSFSGVPSRFSGSGSGTDFTLTINSVEAEDAATYYCQQSNSWPLTFGAGTKLEIKRTVAAPSVFIFPPSDEQLKSGTASVVCLLNNFYPREAKVQWKVDNALQSGNSQESVTEQDSKDSTYSLSSTLTLSKADYEKHKVYACEVTHQGLSSPVTKSFNRGEC
notes: expressed with the common light chain Anti-PDL1-LC; also called tetravalent bispecific antibody against PD-1 and PD-L1
Take B5: the half-maximal effective concentration (EC50) in the assay with PD1-His [8] amounted to 5.31 nM; with PD-L1-His [6], 0.14 nM.

B6: 609-Fab-PDL1-IgG4 (bispecific antibody)
heavy: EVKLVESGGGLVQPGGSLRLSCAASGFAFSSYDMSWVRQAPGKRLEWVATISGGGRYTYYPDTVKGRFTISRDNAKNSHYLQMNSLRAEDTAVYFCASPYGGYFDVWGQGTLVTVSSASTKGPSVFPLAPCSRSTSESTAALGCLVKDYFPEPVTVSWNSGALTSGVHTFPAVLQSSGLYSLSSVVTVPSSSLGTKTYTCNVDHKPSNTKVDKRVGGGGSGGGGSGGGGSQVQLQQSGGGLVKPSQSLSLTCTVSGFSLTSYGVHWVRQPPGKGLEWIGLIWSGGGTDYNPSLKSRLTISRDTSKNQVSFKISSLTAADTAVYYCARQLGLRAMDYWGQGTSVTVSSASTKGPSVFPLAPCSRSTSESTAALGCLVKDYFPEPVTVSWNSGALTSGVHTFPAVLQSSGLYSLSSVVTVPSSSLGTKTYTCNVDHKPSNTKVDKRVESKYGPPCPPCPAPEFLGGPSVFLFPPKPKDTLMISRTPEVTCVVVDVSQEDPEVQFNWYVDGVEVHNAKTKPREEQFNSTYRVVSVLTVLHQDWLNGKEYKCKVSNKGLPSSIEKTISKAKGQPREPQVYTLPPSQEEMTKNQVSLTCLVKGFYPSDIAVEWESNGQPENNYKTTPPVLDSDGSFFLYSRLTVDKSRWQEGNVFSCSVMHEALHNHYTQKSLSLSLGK
light: EIVLTQSPDFLSVTPKEKVTITCRASQSIGTTIHWYQQKPDQSPKLLIKYASQSFSGVPSRFSGSGSGTDFTLTINSVEAEDAATYYCQQSNSWPLTFGAGTKLEIKRTVAAPSVFIFPPSDEQLKSGTASVVCLLNNFYPREAKVQWKVDNALQSGNSQESVTEQDSKDSTYSLSSTLTLSKADYEKHKVYACEVTHQGLSSPVTKSFNRGEC
notes: as for B5
Turning to B6, in the assay with PD1-His [7], binding was put at a Kd of 25.7 nM, the koff was 0.00443 s⁻¹ and the kon was 173000 M⁻¹ s⁻¹. In the assay with PD-L1-His [5], this molecule yielded a dissociation constant (Kd) of 0.608 nM, a dissociation rate constant (koff) of 0.00112 s⁻¹ and a kon of 1.85e+06 M⁻¹ s⁻¹. In the assay with PD1-His [8], the 50% effective concentration (EC50) amounted to 0.421 nM. The molecule further had a concentration giving a half-maximal response (EC50) in the assay with PD-L1-His [6] of 0.135 nM.
